From patent publication US20230357429A1 (JANUX THERAPEUTICS, published 2023)
Substitutions are numbered along the chain they refer to. Names may count otherwise. One block for each binder: values may come before it. Where no end group is shown, it is not given here.

T1: Human TROP2 ECD (31-274 AA), biotinylated (human, UniProt P09758 31-274, biotinylated (site not stated))
T1 construct: also called tumor-associated calcium signal transducer 2; Human TROP2-biotin
T1 sequence: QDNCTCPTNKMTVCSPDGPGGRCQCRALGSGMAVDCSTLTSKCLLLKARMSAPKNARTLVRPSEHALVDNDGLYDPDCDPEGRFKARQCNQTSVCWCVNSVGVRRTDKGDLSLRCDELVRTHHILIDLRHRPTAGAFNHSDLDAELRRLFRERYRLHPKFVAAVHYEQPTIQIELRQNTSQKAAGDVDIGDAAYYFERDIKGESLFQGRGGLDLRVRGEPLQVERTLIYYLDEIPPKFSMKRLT

T2: Peptide-74 (cysteine pairing not given here; also: biotinylated, site not given here)
T2 construct: mask peptide for the CD3 scFv
T2 peptide: ASQCLGPEWEVCPY

T3: Peptide-67 (cysteine pairing not given here; also: biotinylated, site not given here)
T3 construct: mask peptide for the CD3 scFv
T3 peptide: VYCGPEFDESVGCM

T4: Peptide-68 (cysteine pairing not given here; also: biotinylated, site not given here)
T4 construct: mask peptide for the CD3 scFv
T4 peptide: DWCWYSPDNDGLCD

T5: Peptide-73 (cysteine pairing not given here; also: biotinylated, site not given here)
T5 construct: mask peptide for the CD3 scFv
T5 peptide: VYCGPEFDESVGCA

T6: Peptide-75 (cysteine pairing not given here; also: biotinylated, site not given here)
T6 construct: mask peptide for the CD3 scFv
T6 peptide: GSACLGPEWEVCPY

T7: Peptide-66 (cysteine pairing not given here; also: biotinylated, site not given here)
T7 construct: mask peptide for the CD3 scFv
T7 peptide: GSQCLGPEWEVCPY

T8: Peptide-71 (cysteine pairing not given here; also: biotinylated, site not given here)
T8 construct: mask peptide for the CD3 scFv
T8 peptide: VDCGPDGDESILCY

T9: Human TROP2 ECD (31-274 AA) (human, UniProt P09758 31-274, biotinylated)
T9 construct: also called biotinylated TROP2; TROP2-biotin
T9 sequence: T1 sequence

T10: Human TROP2 Full length (human, UniProt P09758 31-323)
T10 sequence: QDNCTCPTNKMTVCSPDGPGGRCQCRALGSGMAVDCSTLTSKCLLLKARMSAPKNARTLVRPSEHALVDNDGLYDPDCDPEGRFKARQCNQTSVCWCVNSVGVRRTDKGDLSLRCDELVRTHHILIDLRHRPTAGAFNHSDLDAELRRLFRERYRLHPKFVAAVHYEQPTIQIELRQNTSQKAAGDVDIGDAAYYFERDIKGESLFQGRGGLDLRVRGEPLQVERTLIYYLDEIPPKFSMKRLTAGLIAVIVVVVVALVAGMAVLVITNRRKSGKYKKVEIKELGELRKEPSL

T11: Cyno TROP2 Full length (cynomolgus monkey, UniProt P09758 31-323 (human entry))
T11 chain: T10 sequence with M32V, S63N, I200V, M262V, T268S

B1: Peptide-70 (peptide)
peptide: YLCGPDGDETLACY
modifications: cysteine pairing not given here; also: biotinylated, site not given here
notes: mask peptide for the CD3 scFv
B2: TCE-7 (anti-CD3 wt, anti-TROP2 F108A) (bispecific antibody)
light: DIQLTQSPSSLSASVGDRVSITCKASQDVSIAVAWYQQKPGKAPKLLIYSASYRYTGVPDRFSGSGSGTDFTLTISSLQPEDFAVYYCQQHYITPLTFGAGTKVEIKRTVAAPSVFIFPPSDEQLKSGTASVVCLLNNFYPREAKVQWKVDNALQSGNSQESVTEQDSKDSTYSLSSTLTLSKADYEKHKVYACEVTHQGLSSPVTKSFNRGEC
heavy: not shown
notes: scFv on the Fab heavy chain; the entry already carries the mutation
B3: PC-2 + MTSP1 (bispecific antibody)
light: B2 light
chain: not shown
modifications: Protease-treated product: both masks and the anti-albumin domain are cut off in the cleavable linkers.
notes: not shown: The few linker residues left at the N-terminus of each chain after the MTSP1 cut
B4: PC-3 + MTSP1 (bispecific antibody)
light: B2 light
chain: not shown
modifications: Protease-treated product: both masks and the anti-albumin domain are cut off in the cleavable linkers.
notes: as for B3
B5: TCE-28 (anti-CD3 scFv S235A; anti-TROP2 wt) (bispecific antibody)
light: B2 light
heavy: not shown
notes: scFv on the Fab heavy chain
B6: TCE-26 (anti-CD3 scFv W233A; anti-TROP2 HC wt) (bispecific antibody)
light: B2 light
heavy: not shown
notes: scFv on the Fab heavy chain; also called TCE-26 (W233A)
B7: PC-18 (bispecific antibody)
light: GGVDFCALYHWPICYQGGGGSGGLSGRSDAGSPLGLAGSGGSDIQLTQSPSSLSASVGDRVSITCKASQDVSIAVAWYQQKPGKAPKLLIYSASYRYTGVPDRFSGSGSGTDFTLTISSLQPEDFAVYYCQQHYITPLTFGAGTKVEIKRTVAAPSVFIFPPSDEQLKSGTASVVCLLNNFYPREAKVQWKVDNALQSGNSQESVTEQDSKDSTYSLSSTLTLSKADYEKHKVYACEVTHQGLSSPVTKSFNRGEC
heavy: not shown
notes: Masked polypeptide complex: anti-TROP2 Fab F108A, anti-CD3 scFv wt; cleavable linkers

How the values were obtained:
[1] = molecular target: T12, TCE-1 (anti-CD3 scFv wt; anti-TROP2 Fab wt); experiment: competition ELISA: peptide titrated and pre-incubated with a constant concentration of TCE-1, binding of TCE-1 to plate-bound biotinylated CD3 detected
T12 construct: anti-CD3 scFv fused to the N-terminus of the anti-TROP2 Fab heavy chain; also called TCE-1 (wt)

[2] = molecular target: B6; experiment: competition ELISA, TCE on captured CD3
[3] = molecular target: T13, TCE-22 (anti-CD3 scFv W112A; anti-TROP2 wt); experiment: competition ELISA, TCE on captured CD3
T13 construct: scFv on the Fab heavy chain; also called TCE-22 (W112A)

[4] = molecular target: T14, TCE-31 (anti-CD3 scFv W238A; anti-TROP2 wt); experiment: competition ELISA, TCE on captured CD3
T14 construct: scFv on the Fab heavy chain; also called TCE-31 (W238A)

[5] = molecular target: T15, TCE-36 (anti-CD3 scFv H101A; anti-TROP2 F108A); experiment: competition ELISA, TCE on captured CD3
T15 construct: scFv on the Fab heavy chain

[6] = molecular target: T16, TCE-38 (anti-CD3 scFv F240A; anti-TROP2 F108A); experiment: competition ELISA, TCE on captured CD3
T16 construct: scFv on the Fab heavy chain

[7] = molecular target: T17, TCE-13 (anti-CD3 scFv N103A; anti-TROP2 wt); experiment: competition ELISA, TCE on captured CD3
T17 construct: scFv on the Fab heavy chain; also called TCE-13 (N103A)

[8] = molecular target: T18, TCE-10 (anti-CD3 scFv R100A; anti-TROP2 wt); experiment: competition ELISA, TCE on captured CD3
T18 construct: scFv on the Fab heavy chain; also called TCE-10 (R100A)

[9] = molecular target: T19, TCE-20 (anti-CD3 scFv S110A; anti-TROP2 wt); experiment: competition ELISA, TCE on captured CD3
T19 construct: scFv on the Fab heavy chain; also called TCE-20 (S110A)

[10] = molecular target: T20, TCE-14 (anti-CD3 scFv F104A; anti-TROP2 wt); experiment: competition ELISA, TCE on captured CD3
T20 construct: scFv on the Fab heavy chain; also called TCE-14 (F104A)

[11] = molecular target: T21, TCE-37 (anti-CD3 scFv F104A; anti-TROP2 F108A); experiment: competition ELISA, TCE on captured CD3
T21 construct: scFv on the Fab heavy chain

[12] = molecular target: T22, TCE-39 (anti-CD3 scFv P41S, A49G, N87S, L150F, T151S, G163R, P175A, K181T, T200V, A202D, L208I, G211N, L217I, …); experiment: competition ELISA, TCE on captured CD3
T22 construct: scFv on the Fab heavy chain

[13] = molecular target: T23, TCE-7 (anti-CD3 scFv wt; anti-TROP2 F108A); experiment: competition ELISA, TCE on captured CD3
T23 construct: scFv on the Fab heavy chain

[14] = molecular target: T1, Human TROP2 ECD (31-274 AA), …; experiment: ELISA on immobilized TROP2
[15] = molecular target: T1, Human TROP2 ECD (31-274 AA), …; experiment: ELISA on immobilized TROP2; remark: listed apart in the source
[16] = molecular target: T1, Human TROP2 ECD (31-274 AA), …; experiment: ELISA on immobilized TROP2; remark: listed apart in the source
[17] = molecular target: T1, Human TROP2 ECD (31-274 AA), …; experiment: ELISA on immobilized TROP2; binder pre-treated with MTSP1
[18] = molecular target: T24, CD3 (biotinylated CD3 antigen) (human, UniProt P07766 23-126, limits assumed, biotinylated (site not stated)); experiment: ELISA: biotinylated CD3 captured on neutravidin plates, TCE titrated, HRP secondary antibody
T24 construct: also called CD3ε; human CD3

Peptide-74 = molecular target: T2, Peptide-74; experiment: ELISA, TCE on captured biotin-peptide
Peptide-67 = molecular target: T3, Peptide-67; experiment: ELISA, TCE on captured biotin-peptide
Peptide-68 = molecular target: T4, Peptide-68; experiment: ELISA, TCE on captured biotin-peptide
Peptide-70 = molecular target: B1; experiment: ELISA, TCE on captured biotin-peptide
Peptide-73 = molecular target: T5, Peptide-73; experiment: ELISA, TCE on captured biotin-peptide
Peptide-75 = molecular target: T6, Peptide-75; experiment: ELISA, TCE on captured biotin-peptide
Peptide-66 = molecular target: T7, Peptide-66; experiment: ELISA, TCE on captured biotin-peptide
Peptide-71 = molecular target: T8, Peptide-71; experiment: ELISA, TCE on captured biotin-peptide
αCD3 scFv = molecular target: T25, αCD3 scFv; experiment: competition ELISA; peptide titrated and pre-incubated with a constant concentration of αCD3 scFv; blocked: binding of the scFv to plate-bound biotinylated CD3
T25 construct: also called anti-CD3 scFv; CD3 scFv (SP34.185) wt

[19] = molecular target: T9, Human TROP2 ECD (31-274 AA); experiment: ELISA; biotinylated TROP2 on neutravidin plates, PC titrated, HRP secondary
Human TROP2 Full length = molecular target: T10, Human TROP2 Full length; experiment: cell-based or functional assay
Cyno TROP2 Full length = molecular target: T11, Cyno TROP2 Full length; experiment: cell-based or functional assay

Binder: B1
IC50 (read off the curve) [1]: ~10 nM
IC50 [2]: 5000 nM
IC50 [3]: 470 nM
IC50 [4]: 43500 nM
IC50 [5]: 80 nM
IC50 [6]: 140 nM
IC50 [7]: 2110 nM
IC50 [8]: 240 nM
IC50 [9]: 370 nM
IC50 [10]: 180 nM

IC50 [11]: 950 nM
IC50 [12]: 2790 nM
IC50 [13]: 17500 nM
Binder: YLCGPDADETLACY (cysteine pairing not given here; also: biotinylated, site not given here, mask peptide for the CD3 scFv) [Peptide-76]

Binder: B2
EC50 [14]: 1.41 nM
EC50 [15]: 0.36 nM
EC50 [16]: 0.18 nM

Binder: B3
EC50 [17]: 0.45 nM

Binder: B4
EC50 [17]: 0.42 nM

Binder: B5
EC50 [18]: 0.158 nM

Binder: B6
EC50 (Peptide-74): 5.47 nM
EC50 (Peptide-67): 6.46 nM
EC50 (Peptide-68): 2.68 nM
EC50 (Peptide-70): 0.95 nM
EC50 (Peptide-73): 6.63 nM
EC50 (Peptide-75): 6.26 nM
EC50 (Peptide-66): 6.28 nM
EC50 (Peptide-71): 4.69 nM
EC50 [18]: 1.81 nM

IC50 (αCD3 scFv): 50 nM
Binder: VYCGPEFDESVGCM (also called CD3 scFv peptide mask) [Peptide-67]

Binder: B7
EC50 [19]: 957 nM
EC50 [15]: 301 nM
H292 Cytotoxicity EC50 (pM) (Human TROP2 Full length): > 100000 pM
HCT116 Cytotoxicity EC50 (pM) (Human TROP2 Full length): > 100000 pM
CyTROP2 HEK293 EC50 (pM) (Cyno TROP2 Full length): 8250 pM
EC50 [16]: 206 nM

IC50 (αCD3 scFv): 10 nM
Binder: YLCGPDGDETLACY (also called CD3 scFv peptide mask)
